Patent US20210079071A1

Legend:
[1] = target: Staphylocoagulase peptide SC(1-10) conjugated to ovalbumin (Staphylococcus aureus); assay: ELISA: purified GMA-2105 on SC peptide-ovalbumin conjugate, A490
[2] = target: T1, Staphylocoagulase peptide SC(1-10), …, unconjugated (Staphylococcus aureus); assay: ELISA: purified GMA-2105 on unconjugated …, A490
[3] = target: T1, Staphylocoagulase peptide SC(1-10), …, …; assay: ELISA: GMA-2105 F(ab) on wells coated with …, A490
[4] = target: GMA-2105 murine anti-staphylocoagulase monoclonal antibody

B1: GMA-2105 murine anti-staphylocoagulase monoclonal antibody (antibody, V domains shown)
VH: EVKLEESGGGLVQPGGSMKLSCAASGFTFSDAWMDWVRQSPEKGLEWVAEIRTKANNHATYYAESVKGRFTISRDDSKSSVYLQMNSLRAEDTGIYYCTNVYYGNNDVKDYWGQGTSVTVSPAS
VL: DIVMTQSQKFMSTSVGDRVSVTCKASQNVDIYVAWYQQKPGQSPKALIYSASYRFSGVPDRFTGSGSGTDFTLSISNVQSEDLAEYFCQQYNNYPYTFGGGTKLEIKRADAAPTVSIFPPSSEGRI
EC50 (read off the curve) [1]: 0.03 µg/mL | EC50 (read off the curve) [2]: 0.05 µg/mL

B2: GMA-2105 F(ab) fragment (Fab, V domains shown)
VH: B1 VH
VL: B1 VL
EC50 (read off the curve) [3]: 0.1 µg/mL

IVTKDYSKES (modifications not checked) [Staphylocoagulase peptide SC(1-10), …, unconjugated]
IC50 (read off the curve) [4]: 2 nM
